Results from patent US20260167959A1, “APTAZYME-BASED REGULATABLE GENE EXPRESSION SYSTEMS” (REJUVENATE BIO INC, priority 2022, published 2026).

System: Renilla luciferase RNA
Assay: Barcoded aptazyme variant library screen: un-cleaved Renilla luciferase RNA by barcode read counts, HEK293-T cells
Assay type: cell-based
Details: un-cleaved Renilla luciferase RNA, HEK293-T cells cultured with 1 mM theophylline (ON) over without theophylline (OFF); barcode read counts, triplicate
In short: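 Aptazyme variants (seven theophylline aptamers inserted after each T3H48 ribozyme nucleotide, 9-nt barcoded) cloned into the 3′ UTR of Renilla luciferase in psiCHECK-2; cells cultured ± theophylline, in triplicate. RNA and DNA barcodes amplified and sequenced; normalized read counts gave un-cleaved RNA fraction and ON/OFF fold-change.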

| Molecule | Fold change in RNA expression between the ON state and the OFF state [fold] |
| --- | --- |
| RA238 (nucleic acid, expressed or natural sequence) DNA: GCGCGTCCTGGATTAGAATACCAGCATCGTCTTGATGCCCTTGGAAGTCTCGCGGAAACGCGTACATCCAGCTGACGAGTCCCAAATAGGACGAAACGCGC | 1.1 |
| RA249 (nucleic acid, expressed or natural sequence) DNA: GCGCGTCCTGGATTCGCGGAAACGCGTACATCCACCGGAATACCAGCATCGTCTTGATGCCCTTGGAAGTCCGGGCTGACGAGTCCCAAATAGGACGAAACGCGC | 1.1 |
| RA248 (nucleic acid, expressed or natural sequence) DNA: GCGCGTCCTGGATTCGCGGAAACGCGTACATCCAGCTGACGAGTCCAGTGATACCAGCATCGTCTTGATGCCCTTGGCAGCACTCAAATAGGACGAAACGCGC | 1.1 |
| RA210: SEQ ID NO 210; theophylline inducible aptazyme (nucleic acid, chemistry not given here, theophylline inducible aptazyme) GCTGTCACCGGAATACCAGCATCGTCTTGATGCCCTTGGAAGTCCGGTCTGATGAGTCCAAAAAGGACGAAACAGC | 1.2 |
| RA024 (nucleic acid, expressed or natural sequence) DNA: GCGCGTCCTGGATTCGCGGAAACGCGTACATCCAGCTGACGAGTCCCAAATAGGACAGTGATACCAGCATCGTCTTGATGCCCTTGGCAGCACTGAAACGCGC | 2.6 |
| RA242 (nucleic acid, expressed or natural sequence) DNA: GCGCGTCCTGGATTCCGGAATACCAGCATCGTCTTGATGCCCTTGGAAGTCCGGCGCGGAAACGCGTACATCCAGCTGACGAGTCCCAAATAGGACGAAACGCGC | 1.1 |
| RA250 (nucleic acid, expressed or natural sequence) DNA: GCGCGAGTGATACCAGCATCGTCTTGATGCCCTTGGCAGCACTTCCTGGATTCGCGGAAACGCGTACATCCAGCTGACGAGTCCCAAATAGGACGAAACGCGC | 1.1 |
| RA247 (nucleic acid, expressed or natural sequence) DNA: GCGCGTCCTGGATTCGCGGAAACGCGTACATCCAGCTGAGGAATACCAGCATCGTCTTGATGCCCTTGGAAGTCCCGAGTCCCAAATAGGACGAAACGCGC | 1.1 |
| RA243 (nucleic acid, expressed or natural sequence) DNA: GCGCGTCCTGGATTCGCGGAAACGCGTACATCCAGCCCGGAATACCAGCATCGTCTTGATGCCCTTGGAAGTCCGGTGACGAGTCCCAAATAGGACGAAACGCGC | 1.1 |
| RA239 (nucleic acid, expressed or natural sequence) DNA: GCGCGTCCTGGATTCGCGGAAACGCGTACATCCAGCTGACCCGGAATACCAGCATCGTCTTGATGCCCTTGGAAGTCCGGGAGTCCCAAATAGGACGAAACGCGC | 1.1 |
| RA244 (nucleic acid, expressed or natural sequence) DNA: GCGCGTCCTGGATTCGCGGAAACGCGTCCGGAATACCAGCATCGTCTTGATGCCCTTGGAAGTCCGGACATCCAGCTGACGAGTCCCAAATAGGACGAAACGCGC | 1.1 |
| RA240 (nucleic acid, expressed or natural sequence) DNA: GCGCGTCCTGGATTCGCGGAAACGCGTACATCCAGCTGACGAGTCCCCGAGAATACCAGCATCGTCTTGATGCCCTTGGAAGTCTCGAAATAGGACGAAACGCGC | 1.1 |
| RA246 (nucleic acid, expressed or natural sequence) DNA: GCGCGTCCTGGATTCGCGGAGAATACCAGCATCGTCTTGATGCCCTTGGAAGTCTCGAAACGCGTACATCCAGCTGACGAGTCCCAAATAGGACGAAACGCGC | 1.1 |
| RA245 (nucleic acid, expressed or natural sequence) DNA: GGGAATACCAGCATCGTCTTGATGCCCTTGGAAGTCCCGCGTCCTGGATTCGCGGAAACGCGTACATCCAGCTGACGAGTCCCAAATAGGACGAAACGCGC | 1.1 |
| RA241 (nucleic acid, expressed or natural sequence) DNA: GCGCGTCCTCCGGAATACCAGCATCGTCTTGATGCCCTTGGAAGTCCGGGGATTCGCGGAAACGCGTACATCCAGCTGACGAGTCCCAAATAGGACGAAACGCGC | 1.1 |
| RA237 (nucleic acid, expressed or natural sequence) DNA: GCGCGTCCTGGATTCGCGGAAACGCGTACATCCAGCTGACGGAGAATACCAGCATCGTCTTGATGCCCTTGGAAGTCTCAGTCCCAAATAGGACGAAACGCGC | 1.1 |
| RA023 (nucleic acid, expressed or natural sequence) DNA: GCGCGTCCTGGATTCGCGGAAACGCGTGAGAATACCAGCATCGTCTTGATGCCCTTGGAAGTCTCACATCCAGCTGACGAGTCCCAAATAGGACGAAACGCGC | 2.6 |

System: GFP
Assay: not given
Details: HEK293-T cells, dual FP plasmid, 24 hours post-transfection

| Molecule | Fold-change in GFP expression, presence of theophylline over absence of theophylline [×] |
| --- | --- |
| RA210: SEQ ID NO 210; theophylline inducible aptazyme (nucleic acid, chemistry not given here, theophylline inducible aptazyme) GCTGTCACCGGAATACCAGCATCGTCTTGATGCCCTTGGAAGTCCGGTCTGATGAGTCCAAAAAGGACGAAACAGC | 2.55 |
